Patent publication US20250066498A1 (GO THERAPEUTICS, published 2025)

Legend:
[1] = molecular target: T1, LAMP1-Tn peptide Biotin-CEQDRPSPTTAPPAPPSPSP (human, N-terminal biotin; O-linked GalNAc on the serine at position 7 and the threonines at positions 9 and 10); assay: BLI (Octet), peptide on biosensor, apparent affinity (Example 3)
T1 construct: Synthetic 20-mer glycopeptide made by FMOC synthesis; also called LAMP1 glycopeptide; glycosylated LAMP1 peptide
T1 peptide: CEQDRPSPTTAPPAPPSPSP
Description: Antibody affinity and epitope binning of monoclonal antibodies can be assessed against specific antigens using BLI. […] The affinity is determined by fitting the binding curve to a specific model: a 1:1 monovalent model or a 2:1 bivalent model. The error (>95% confidence) is calculated by how close the generated curve matches the model.
To characterize the cross-reactivity between mAb237 the anti-glyco-LAMP1 antibodies 3C7, 13C3, and 13G2, the affinities of mAb237, 3C7, 13C3, and 13G2 against the glycosylated LAMP1 peptide, the unglycosylated LAMP1 peptide, and the podoplanin glycopeptide were determined by Octet. Table 8 summarizes the dissociation constants (Kd) for mAb237, 3C7, 13C3, and 13G2 against the glycosylated LAMP1 peptide, the unglycosylated LAMP1 peptide, and the podoplanin glycopeptide. No cross reactivity was observed despite the sequence similarities observed between mAb237 and 3C7, 13C3, and 13G2.

[2] = molecular target: T1, LAMP1-Tn peptide …; assay: BLI (Octet), peptide on biosensor, apparent affinity
[3] = molecular target: T2, LAMP1-Tn (T1) peptide Biotin-CEQDRPSPTTAPPAPPSPSP (human, N-terminal biotin; GalNAc on one threonine (label 'T1'). By the order of items in paragraph 452 and paragraph 453 this is the threonine at position 9); assay: as above
T2 construct: Singly glycosylated form of the LAMP1 20-mer
T2 peptide: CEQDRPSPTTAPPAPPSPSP

[4] = molecular target: T1, LAMP1-Tn peptide …; assay: SPR (Biacore), antibody immobilised, peptide as analyte
Description: Antibody affinity assays can be carried out using surface plasmon resonance (e.g., using a Biacore system (Cytiva)). […] The affinity is determined by fitting the binding curve to a specific model: kinetic fit (1:1 model) or if applicable heterogenous ligand binding model.
To characterize the binding specificities of 3C7, 13C3, and 13G2 for non-glycosylated and Tn-glycosylated LAMP1, flow cytometry analysis of the LAMP1 mouse antibodies on T47D COSMC-KO cells was performed. […] The affinities of 3C7, 13C3, and 13G2 against the LAMP1 glycopeptides were determined by Biacore and Octet. Table 7 summarizes dissociation constants (Kd) for 3C7, 13C3, and 13G2 against different glycoforms of LAMP1 peptide, as well as unglycosylated LAMP1 and MUC1-Tn.

B1: 3C7.2C11.1C9 (antibody, V domains shown)
VH: EVKLEESGGGLVQPGGSMKVSCGASGFTFSDAWMDWVRQSPEKGLEWVAEMRSKAFNHAIYYAESVKGRFTISRDDSKSRVYLQMNLLRPEDTGIYYCTPNWDEGFAYWGQGTLVTVSA
VL: DVMLTQTPLSLPVSLGDQASISCRSSQSLVHSNGNTYLHWYLQKPGQSPKLLINKVSNRFFGVPDRFSGSGSGTDFTLKISRVEAEDLGVYFCSQSTHVPRTFGGGTKLEIK
notes: Mouse monoclonal antibody from a hybridoma (Balb/c mice immunised with KLH-LAMP1-Tn glycopeptide)
Kd [1]: 13.9 nM | Kd [2]: 18.2 nM | Kd [3]: 810 nM | Kd [4]: 28.7 nM
